This note sets out measurements from US20250262210A1 (TRUSTEES OF COLUMBIA UNIVERSITY IN THE CITY OF NEW YORK, published 2025).

Positions count from the first letter of the chain named.

The chains are these.
T1: LZTR1-FLAG (human, UniProt Q8N653 1-840)
T1 construct: Expressed in HEK 293T, HeLa or U87 cells; used as cell lysate; also called LZTR1 wild type-FLAG; LZTR1 WT; not shown: FLAG tag at the C-terminus
T1 sequence (looked up): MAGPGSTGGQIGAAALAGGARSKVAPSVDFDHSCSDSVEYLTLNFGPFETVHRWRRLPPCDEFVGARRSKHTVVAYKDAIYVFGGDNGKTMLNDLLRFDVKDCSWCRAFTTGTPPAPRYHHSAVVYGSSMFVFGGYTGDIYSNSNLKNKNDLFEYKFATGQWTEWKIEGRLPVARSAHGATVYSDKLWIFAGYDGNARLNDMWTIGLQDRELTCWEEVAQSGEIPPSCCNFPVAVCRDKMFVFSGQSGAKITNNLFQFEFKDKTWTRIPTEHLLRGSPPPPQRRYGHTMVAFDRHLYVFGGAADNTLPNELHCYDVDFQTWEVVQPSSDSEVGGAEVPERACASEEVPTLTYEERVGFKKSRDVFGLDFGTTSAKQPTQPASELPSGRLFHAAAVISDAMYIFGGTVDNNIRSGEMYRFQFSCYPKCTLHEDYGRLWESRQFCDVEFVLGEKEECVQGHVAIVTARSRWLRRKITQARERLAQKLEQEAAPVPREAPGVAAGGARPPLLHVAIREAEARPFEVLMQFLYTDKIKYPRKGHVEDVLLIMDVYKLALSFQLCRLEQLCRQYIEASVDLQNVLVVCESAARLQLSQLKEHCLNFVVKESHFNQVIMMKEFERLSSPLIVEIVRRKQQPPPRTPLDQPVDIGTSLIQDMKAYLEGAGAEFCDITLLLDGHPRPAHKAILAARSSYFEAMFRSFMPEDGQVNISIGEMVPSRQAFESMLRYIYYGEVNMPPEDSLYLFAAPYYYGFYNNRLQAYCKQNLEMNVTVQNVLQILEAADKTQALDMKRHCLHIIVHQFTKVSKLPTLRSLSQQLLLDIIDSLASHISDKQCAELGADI

T2: LZTR1 R810W-FLAG (human, UniProt Q8N653 1-840)
T2 construct: Stably expressed in U87 cells by lentivirus; also called LZTR1-FLAG-R810W; LZTR1 RW; not shown: FLAG tag
T2 sequence (looked up): T1 sequence (looked up) with R810W

B1: APPL1 (other, human, UniProt Q9UKG1 1-709, looked up)
chain: MPGIDKLPIEETLEDSPQTRSLLGVFEEDATAISNYMNQLYQAMHRIYDAQNELSAATHLTSKLLKEYEKQRFPLGGDDEVMSSTLQQFSKVIDELSSCHAVLSTQLADAMMFPITQFKERDLKEILTLKEVFQIASNDHDAAINRYSRLSKKRENDKVKYEVTEDVYTSRKKQHQTMMHYFCALNTLQYKKKIALLEPLLGYMQAQISFFKMGSENLNEQLEEFLANIGTSVQNVRREMDSDIETMQQTIEDLEVASDPLYVPDPDPTKFPVNRNLTRKAGYLNARNKTGLVSSTWDRQFYFTQGGNLMSQARGDVAGGLAMDIDNCSVMAVDCEDRRYCFQITSFDGKKSSILQAESKKDHEEWICTINNISKQIYLSENPEETAARVNQSALEAVTPSPSFQQRHESLRPAAGQSRPPTARTSSSGSLGSESTNLAALSLDSLVAPDTPIQFDIISPVCEDQPGQAKAFGQGGRRTNPFGESGGSTKSETEDSILHQLFIVRFLGSMEVKSDDHPDVVYETMRQILAARAIHNIFRMTESHLLVTCDCLKLIDPQTQVTRLTFPLPCVVLYATHQENKRLFGFVLRTSSGRSESNLSSVCYIFESNNEGEKICDSVGLAKQIALHAELDRRASEKQKEIERVKEKQQKELNKQKQIEKDLEEQSRLIAASSRPNQASSEGQFVVLSSSQSEESDLGEGGKKRESEA
B2: ARMCX2 (other, human, UniProt Q7L311 1-632, looked up)
chain: MSRVRDAGCVAAGIVIGAGAWYCVYKYTRGRDQTKKRMAKPKNRAVAGTGARARAGLRAGFTIDLGSGFSPPTPVRAEAEDRAQDEASALDTVGAEAVAPAASSAEAQSGAGSQAQEADGAGVGPKAESVVGAAMASAIAPPPGVTEALGAAEAPAMAGAPKVAEAPREAETSRAAVPPGTVVPTEAAAPTEVTEGPGVAAPTKVAEAPGVASPTEAAEAPVPATPTGAAAPTGAAESPGTSGSPRTAVVPGTSAAKKATPGAHTGAIPKATSATGAVPKGGGKGVTRSRNGGKGKGKKSKVEVDELGMGFRPGDGAAAAAAASANGGQAFLAEVPDSEEGESGWTDTESDSDSEPETQRRGRGRRPVAMQKRPFPYEIDEILGVRDLRKVLALLQKSDDPFIQQVALLTLSNNANYSCNQETIRKLGGLPIIANMINKTDPHIKEKALMAMNNLSENYENQGRLQVYMNKVMDDIMASNLNSAVQVVGLKFLTNMTITNDYQHLLVNSIANFFRLLSQGGGKIKVEILKILSNFAENPDMLKKLLSTQVPASFSSLYNSYVESEILINALTLFEIIYDNLRAEVFNYREFNKGSLFYLCTTSGVCVKKIRALANHHDLLVKVKVIKLVNKF
B3: ATF6 (other, human, UniProt P18850 1-670, looked up)
chain: MGEPAGVAGTMESPFSPGLFHRLDEDWDSALFAELGYFTDTDELQLEAANETYENNFDNLDFDLDLMPWESDIWDINNQICTVKDIKAEPQPLSPASSSYSVSSPRSVDSYSSTQHVPEELDLSSSSQMSPLSLYGENSNSLSSAEPLKEDKPVTGPRNKTENGLTPKKKIQVNSKPSIQPKPLLLPAAPKTQTNSSVPAKTIIIQTVPTLMPLAKQQPIISLQPAPTKGQTVLLSQPTVVQLQAPGVLPSAQPVLAVAGGVTQLPNHVVNVVPAPSANSPVNGKLSVTKPVLQSTMRNVGSDIAVLRRQQRMIKNRESACQSRKKKKEYMLGLEARLKAALSENEQLKKENGTLKRQLDEVVSENQRLKVPSPKRRVVCVMIVLAFIILNYGPMSMLEQDSRRMNPSVSPANQRRHLLGFSAKEAQDTSDGIIQKNSYRYDHSVSNDKALMVLTEEPLLYIPPPPCQPLINTTESLRLNHELRGWVHRHEVERTKSRRMTNNQQKTRILQGALEQGSNSQLMAVQYTETTSSISRNSGSELQVYYASPRSYQDFFEAIRRRGDTFYVVSFRRDHLLLPATTHNKTTRPKMSIVLPAININENVINGQDYEVMMQIDCQVMDTRILHIKSSSVPPYLRDQQRNQTNTFFGSPPAATEATHVVSTIPESLQ
B4: ATF6B (other, human, UniProt Q99941 2-703, looked up)
chain: AELMLLSEIADPTRFFTDNLLSPEDWGLQNSTLYSGLDEVAEEQTQLFRCPEQDVPFDGSSLDVGMDVSPSEPPWELLPIFPDLQVKSEPSSPCSSSSLSSESSRLSTEPSSEALGVGEVLHVKTESLAPPLCLLGDDPTSSFETVQINVIPTSDDSSDVQTKIEPVSPCSSVNSEASLLSADSSSQAFIGEEVLEVKTESLSPSGCLLWDVPAPSLGAVQISMGPSLDGSSGKALPTRKPPLQPKPVVLTTVPMPSRAVPPSTTVLLQSLVQPPPVSPVVLIQGAIRVQPEGPAPSLPRPERKSIVPAPMPGNSCPPEVDAKLLKRQQRMIKNRESACQSRRKKKEYLQGLEARLQAVLADNQQLRRENAALRRRLEALLAENSELKLGSGNRKVVCIMVFLLFIAFNFGPVSISEPPSAPISPRMNKGEPQPRRHLLGFSEQEPVQGVEPLQGSSQGPKEPQPSPTDQPSFSNLTAFPGGAKELLLRDLDQLFLSSDCRHFNRTESLRLADELSGWVQRHQRGRRKIPQRAQERQKSQPRKKSPPVKAVPIQPPGPPERDSVGQLQLYRHPDRSQPAFLDAIDRREDTFYVVSFRRDHLLLPAISHNKTSRPKMSLVMPAMAPNETLSGRGAPGDYEEMMQIECEVMDTRVIHIKTSTVPPSLRKQPSPTPGNATGGPLPVSAASQAHQASHQPLYLNHP
B5: ATG13 (other, human, UniProt O75143 1-517, looked up)
chain: METDLNSQDRKDLDKFIKFFALKTVQVIVQARLGEKICTRSSSSPTGSDWFNLAIKDIPEVTHEAKKALAGQLPAVGRSMCVEISLKTSEGDSMELEIWCLEMNEKCDKEIKVSYTVYNRLSLLLKSLLAITRVTPAYRLSRKQGHEYVILYRIYFGEVQLSGLGEGFQTVRVGTVGTPVGTITLSCAYRINLAFMSTRQFERTPPIMGIIIDHFVDRPYPSSSPMHPCNYRTAGEDTGVIYPSVEDSQEVCTTSFSTSPPSQLSSSRLSYQPAALGVGSADLAYPVVFAAGLNATHPHQLMVPGKEGGVPLAPNQPVHGTQADQERLATCTPSDRTHCAATPSSSEDTETVSNSSEGRASPHDVLETIFVRKVGAFVNKPINQVTLTSLDIPFAMFAPKNLELEDTDPMVNPPDSPETESPLQGSLHSDGSSGGSSGNTHDDFVMIDFKPAFSKDDILPMDLGTFYREFQNPPQLSSLSIDIGAQSMAEDLDSLPEKLAVHEKNVREFDAFVETLQ

The target of the first experiment is T1, LZTR1-FLAG. The experiment is described as follows: IP/MS, LZTR1 wild type-FLAG, U87. The procedure: (§1) Lysates were immunoprecipitated with FLAG affinity matrix and eluted with FLAG peptide. […] Protein gel slices were excised and in-gel digestion performed as previously described (83), with minor modifications. Gel slices were washed with 1:1 A cetonitrile and 100 mM ammonium bicarbonate for 30 min then dehydrated with 100% acetonitrile for 10 min until shrunk. The excess acetonitrile was then removed and the slices dried in speed-vacuum at room temperature for 10 min. Gel slices were reduced with 5 mM DTT for 30 min at 56° C. in an air thermostat, cooled down to room temperature, and alkylated with 11 mM IAA for 30 min with no light. Gel slices were then washed with 100 mM of ammonium bicarbonate and 100% acetonitrile for 10 min each. Excess acetonitrile was removed and dried in a speed-vacuum for 10 min at room temperature and the gel slices were re-hydrated in a solution of 25 ng/μl trypsin in 50 mM ammonium bicarbonate for 30 min on ice and digested overnight at 37° C. in an air thermostat. Digested peptides were collected and further extracted from gel slices in extraction buffer (1:2 ratio by volume of 5% formic acid:acetonitrile) at high speed, shaking in an air thermostat. The supernatants from both extractions were combined and dried in a speed-vacuum. Peptides were dissolved in 3% acetonitrile/0.1% formic acid. Desalted peptides were injected in an EASY-Spray™ PepMap™ RSLC C18 50 cm×[…] column (Thermo Scientific) connected to an Orbitrap Fusion™ Tribrid™ (Thermo Scientific) as described in “Global ubiquitylation enrichment” section. The following modifications were used for protein identification and quantification: oxidation of methionine (M), acetylation of the protein N-terminus, and deamination for asparagine or glutamine (NQ). Results obtained from MaxQuant were assembled in Scaffold for data visualization.
B1: the binding result is recorded as “binds”.
On the same count and under the same terms, the result for B2 reads “binds”; that for B3, “binds”; that for B4, “binds”.
Same read-out and setting: under B5 stands “binds”.

A further experiment has as its target T2, LZTR1 R810W-FLAG. Kind of experiment: IP/MS, LZTR1 R810W-FLAG, U87. How it is done: as §1
Regarding B1, the binding result was “binds”.
On to B2, for which the binding result was “binds”.
For the molecule B3, the binding result is on record as “binds”.
On to B4, for which the binding result is “binds”.
In the case of B5, the binding result was “binds”.
